Measured values published in US20250270274A1 (SERPENTIDE, published 2025).
Where two headings read alike, the source gives them in different places. Where no end group is shown, it is not given here.

Legend:
Assay in all cases: cell-based or functional assay
human GLP1 receptor [1] = molecular target: T1, human GLP1 receptor (human, UniProt P43220 24-463)
mouse GIP receptor = molecular target: T2, mouse GIP receptor (mouse, UniProt Q0P543 19-460)
T2 sequence (looked up): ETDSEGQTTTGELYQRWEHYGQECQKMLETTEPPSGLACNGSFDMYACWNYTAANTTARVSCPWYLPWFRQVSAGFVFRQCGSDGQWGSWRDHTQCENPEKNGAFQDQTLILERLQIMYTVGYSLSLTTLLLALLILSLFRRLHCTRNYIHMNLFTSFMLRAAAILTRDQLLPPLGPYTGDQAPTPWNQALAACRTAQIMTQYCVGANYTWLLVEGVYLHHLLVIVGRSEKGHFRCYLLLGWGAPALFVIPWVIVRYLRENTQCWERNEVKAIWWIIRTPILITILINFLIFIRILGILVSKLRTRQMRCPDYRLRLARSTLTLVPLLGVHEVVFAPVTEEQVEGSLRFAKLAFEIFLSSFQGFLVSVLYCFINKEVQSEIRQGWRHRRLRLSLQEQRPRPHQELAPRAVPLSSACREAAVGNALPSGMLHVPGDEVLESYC

human GIP receptor [2] = molecular target: T3, human GIP receptor (human, UniProt P48546 22-466)
T3 sequence (looked up): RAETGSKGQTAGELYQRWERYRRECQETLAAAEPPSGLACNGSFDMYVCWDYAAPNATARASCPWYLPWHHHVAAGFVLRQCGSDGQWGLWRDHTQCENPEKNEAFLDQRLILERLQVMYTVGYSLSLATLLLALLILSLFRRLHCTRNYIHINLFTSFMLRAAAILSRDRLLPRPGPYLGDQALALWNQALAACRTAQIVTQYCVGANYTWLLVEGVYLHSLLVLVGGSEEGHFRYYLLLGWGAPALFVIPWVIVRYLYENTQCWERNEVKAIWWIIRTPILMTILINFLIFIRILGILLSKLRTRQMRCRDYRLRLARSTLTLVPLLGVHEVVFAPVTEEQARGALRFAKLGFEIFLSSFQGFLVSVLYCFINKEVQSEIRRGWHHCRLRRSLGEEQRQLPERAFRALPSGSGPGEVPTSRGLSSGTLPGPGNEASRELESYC

human GIP receptor [3] = molecular target: T3, human GIP receptor; remark: listed apart in the source
human GLP1 receptor [4] = molecular target: T1, human GLP1 receptor; remark: listed apart in the source

B1: P26: SP02-bispecific antibodies for GLP1R and GIPR (bispecific antibody, human IgG1, kappa)
chain 1: YGEGTFTSDYSIYLDKIAQKAFVQWLIAGGPSSGAPPPSGGGGSGGGGSGGGGSDIVMTQSPSSLTVTAGEKVTMSCKSSQSLLNSGNQKNYLTWYQQKPGQPPKLLISWASTRDSGVPDRFTGSGSGTDFTLTISSVQAEDLAVYYCQNDYSYPLTFGAGTKLELKRTVAAPSVFIFPPSDEQLKSGTASVVCLLNNFYPREAKVQWKVDNALQSGNSQESVTEQDSKDSTYSLSSTLTLSKADYEKHKVYACEVTHQGLSSPVTKSFNRGEC
chain 2: YGEGTFTSDYSIYLDKIAQKAFVQWLIAGGPSSGAPPPSGGGGSGGGGSGGGGSQIVLTQSPAIMSASPGEKVTMTCSASSRVTYMHWYQQRSGTSPKRWIYDTSKLASGVPARFSGSGSGTSYSLTISSMEAEDAATYYCQQWGNNPQYTFGGGTRLEIKRTVAAPSVFIFPPSDEQLKSGTASVVCLLNNFYPREAKVQWKVDNALQSGNSQESVTEQDSKDSTYSLSSTLTLSKADYEKHKVYACEVTHQGLSSPVTKSFNRGEC
chain 3: not shown
chain 4: not shown
Human GLP1 receptor [1]
  EC50, HTRF cAMP bioassay: 0.12 nM
Mouse GIP receptor
  EC50, HTRF cAMP bioassay: 0.35 nM
Human GIP receptor [2]
  EC50, HTRF cAMP bioassay: 48 nM

B2: P28: SP02-amG2 (antibody, human IgG4 S228P, kappa, F234A L235A)
light: YGEGTFTSDYSIYLDKIAQKAFVQWLIAGGPSSGAPPPSGGGGSGGGGSGGGGSDIVMTQSPSSLTVTAGEKVTMSCKSSQSLLNSGNQKNYLTWYQQKPGQPPKLLISWASTRDSGVPDRFTGSGSGTDFTLTISSVQAEDLAVYYCQNDYSYPLTFGAGTKLELKRTVAAPSVFIFPPSDEQLKSGTASVVCLLNNFYPREAKVQWKVDNALQSGNSQESVTEQDSKDSTYSLSSTLTLSKADYEKHKVYACEVTHQGLSSPVTKSFNRGEC
heavy: not shown
Human GLP1 receptor [1]
  EC50, HTRF cAMP bioassay: 1.25 nM
Mouse GIP receptor
  EC50, HTRF cAMP bioassay: 0.42 nM
Human GIP receptor [2]
  EC50, HTRF cAMP bioassay: 69 nM

B3: P46: SP01-amG3 (antibody, human IgG4 S228P, kappa, F234A L235A)
light: HGEGTFTSDVSSYLEEQAAKEFIAWLVKGGGGGGGSGGGGSGGGGSDVVMTQTPLSLPVSLGDQASISCRSSQSLVHSNGDTYLHWYLQKPGQSPKLLIYKVSNRFSGVPDRFSGSGSGTDFTLKISRVEAADLGVYFCSQSTHVPPFTFGGGTKLEIKRTVAAPSVFIFPPSDEQLKSGTASVVCLLNNFYPREAKVQWKVDNALQSGNSQESVTEQDSKDSTYSLSSTLTLSKADYEKHKVYACEVTHQGLSSPVTKSFNRGEC
heavy: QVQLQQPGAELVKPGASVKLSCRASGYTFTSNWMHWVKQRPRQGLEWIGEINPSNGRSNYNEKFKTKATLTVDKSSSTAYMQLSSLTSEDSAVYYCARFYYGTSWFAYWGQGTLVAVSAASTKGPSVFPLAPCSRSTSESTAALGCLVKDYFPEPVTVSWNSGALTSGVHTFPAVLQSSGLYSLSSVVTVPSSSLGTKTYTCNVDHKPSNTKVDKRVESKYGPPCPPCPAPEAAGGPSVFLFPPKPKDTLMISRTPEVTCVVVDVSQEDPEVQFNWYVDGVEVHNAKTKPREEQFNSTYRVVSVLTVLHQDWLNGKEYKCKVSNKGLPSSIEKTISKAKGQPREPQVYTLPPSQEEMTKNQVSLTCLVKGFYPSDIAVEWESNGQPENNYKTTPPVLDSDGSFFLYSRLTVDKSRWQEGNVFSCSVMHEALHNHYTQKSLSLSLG
Human GLP1 receptor [1]
  EC50, HTRF cAMP bioassay: 0.034 nM
Mouse GIP receptor
  IC50, HTRF cAMP bioassay: 11.2 nM

## YGEGTFTSDYSIYLDKIAQKAFVQWLIAGGPSSGAPPPS (ends and bridges not checked) [SP02: GLP1/GIP receptor co-agonist analogue]
Human GIP receptor [3]
  EC50, HTRF cAMP bioassay: 3.69 nM

## YGEGTFTSDYSIQLDKIAQKAFVQWLIAGGPSSGAPPPS (ends and bridges not checked) [SP03: GLP1/GIP receptor co-agonist analogue]
Human GLP1 receptor [4]
  EC50, HTRF cAMP bioassay: 0.225 nM
Human GIP receptor [3]
  EC50, HTRF cAMP bioassay: 22 nM
